{"source": "paper PMC8425125", "about": "“Regulation of wound ethylene biosynthesis by NAC transcription factors in kiwifruit”", "binders": {"B1": {"name": "AcACS1 probe N1 (Wt) (dsDNA)", "DNA 1": "CATTATACGTATAGTCAACCACATAAC", "DNA 2": "GTTATGTGGTTGACTATACGTATAATG"}, "B2": {"name": "AcACS1 probe N1MUT (Mut) (dsDNA)", "DNA 1": "CATCGATCCATCTGTCAACCACATAAC", "DNA 2": "GTTATGTGGTTGACAGATGGATCGATG"}}, "assay_in_all_cases": "EMSA; ~2.5 ug protein, 0.9 pmol probe in 20 uL; 5 mM HEPES-KOH pH 7.6, 30 mM NaCl, 0.2 mM DTT, 0.02 mM EDTA, 0.8 ug salmon sperm DNA, 0.2 ug poly(dI-dC); room temperature 15 min; 4% native PAGE, 0.5x TBE (printed 0.5% w/v), 5% glycerol, pH 8.3, 4 C", "conditions_in_all_cases": "protein: recombinant; tags: N-terminal MBP (pMAL-c2x); chain copies: 2; label: 3'-biotin; blunt", "key": {"[1]": {"target": "AcNAC2 DNA-binding domain (Actinidia chinensis, UniProt A0A075EAR8 1-182)", "sequence (A0A075EAR8 entry or part of it)": "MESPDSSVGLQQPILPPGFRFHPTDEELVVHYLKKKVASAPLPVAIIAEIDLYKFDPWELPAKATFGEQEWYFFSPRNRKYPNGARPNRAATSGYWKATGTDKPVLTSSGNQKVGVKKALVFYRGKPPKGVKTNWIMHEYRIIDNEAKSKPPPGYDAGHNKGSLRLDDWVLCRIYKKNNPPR"}, "[2]": {"target": "AcNAC4 DNA-binding domain (Actinidia chinensis, UniProt A0A075ECR2 1-182)", "sequence (A0A075ECR2 entry or part of it)": "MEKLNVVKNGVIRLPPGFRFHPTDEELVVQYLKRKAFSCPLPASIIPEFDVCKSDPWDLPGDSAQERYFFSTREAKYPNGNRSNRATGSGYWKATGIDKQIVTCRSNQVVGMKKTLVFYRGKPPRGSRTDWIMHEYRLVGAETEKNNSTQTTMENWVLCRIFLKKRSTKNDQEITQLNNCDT"}, "[3]": {"target": "AcNAC1 DNA-binding domain (Actinidia chinensis, UniProt A0A075EB52 1-182)", "sequence (A0A075EB52 entry or part of it)": "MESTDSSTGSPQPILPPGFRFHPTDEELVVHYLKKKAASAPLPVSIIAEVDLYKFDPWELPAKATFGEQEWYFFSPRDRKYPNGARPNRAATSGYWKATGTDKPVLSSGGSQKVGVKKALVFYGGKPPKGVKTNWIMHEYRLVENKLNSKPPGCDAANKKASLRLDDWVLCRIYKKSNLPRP"}, "[4]": {"target": "AcNAC3 DNA-binding domain (Actinidia chinensis, UniProt A0A075EC91 1-182)", "sequence (A0A075EC91 entry or part of it)": "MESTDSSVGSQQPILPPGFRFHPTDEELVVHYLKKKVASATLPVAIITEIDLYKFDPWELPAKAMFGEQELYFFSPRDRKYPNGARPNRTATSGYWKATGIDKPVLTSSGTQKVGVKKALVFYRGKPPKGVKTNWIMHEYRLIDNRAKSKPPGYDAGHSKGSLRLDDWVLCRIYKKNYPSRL"}}, "data": [{"binder": "B1", "values": [{"measurement": "binding result", "setting": "[1]", "result": "binds"}, {"measurement": "binding result", "setting": "[2]", "result": "binds"}, {"measurement": "binding result", "setting": "[3]", "result": "binds"}, {"measurement": "binding result", "setting": "[4]", "result": "binds"}]}, {"binder": "B2", "values": [{"measurement": "binding result", "setting": "[1]", "result": "no binding"}, {"measurement": "binding result", "setting": "[2]", "result": "no binding"}, {"measurement": "binding result", "setting": "[3]", "result": "no binding"}, {"measurement": "binding result", "setting": "[4]", "result": "no binding"}]}]}
